Experimental data reported in patent publication US20060024297A1 (published 2006).
Substitutions are numbered along the chain they refer to. Several values for one entry are separate records, joined by “and”; a condition that tells them apart may be missing. Equal values may be shown once. Each block holds one binder with its values, some of them ahead of it.

Key:
[1] = target: T1, human Tie1, full length, V5-tagged (pcDNA3-Tie1-V5), in transiently transfected COS1 cells (human, UniProt P35590 25-1138); assay: Western blot, Tie1-V5-transfected COS1
T1 construct: it is not expressly tied to the pcDNA3-Tie1-V5 construct; also called Tie1-transfected; transfected Tie1
Method: COS1 cells were transfected with pcDNA3-Tie1-V5 (1 μg DNA per 10 cm cell culture plate) using FUGENE 6 (Roche) according to manufacturer's instruction and incubated for 48 h before stimulation. For immunoprecipitation, Tie1 transfected cells and HMVEC cells were lysed in DOC-RIPA lysis buffer (50 mM Tris-HCl pH 8.0, 150 mM NaCl, 1% Triton-X-100, 0.1% SDS, 1% DOC, 10 mM EDTA) supplemented with aprotinin, leupeptin, PMSF and sodium vanadate. Immunoprecipitation was carried out from equal amount of cell lysates by incubating with polyclonal anti-human Tie1 antibodies (R&D), monoclonal anti-V5 antibodies (Invitrogen) or altogether 23 anti-Tie1 antibodies (1μg/ml) for 1 to 2 h followed by incubation with protein G-Sepharose (Amersham Pharmacia Biotech AB) for 1 h. The immunoprecipitates were washed twice with PBS-T and twice with PBS, followed by elution with the Laemmli buffer and separation in 8% SDS-PAGE. The blots were probed with the 23 anti-Tie1 antibodies (5 μg/ml) and subsequently anti-human Fc antibodies conjugated with HRP.
Next, to find out if the anti-Tie1 antibodies recognize Tie1 in living cells, those cells were studied by immunofluorescence staining.

[2] = target: T2, endogenous human Tie1 of primary human endothelial cells (HDMEC/HDMVEC, HUVEC) and human tissues (human, UniProt P35590 25-1138); assay: immunofluorescence, HDMEC
T2 construct: also called endogenous Tie1; Tie-1 in HUVEC

[3] = target: T3, recombinant human Tie1-Fc (Tie1 extracellular domain fused to human Fc) (human, UniProt P35590 25-759); assay: BIAcore, human Tie-1 Fc over IgG coupled to CM5 chip, 1:1 fit
T3 construct: also called Tie-1 Fc Human; not shown: human Fc
T3 sequence: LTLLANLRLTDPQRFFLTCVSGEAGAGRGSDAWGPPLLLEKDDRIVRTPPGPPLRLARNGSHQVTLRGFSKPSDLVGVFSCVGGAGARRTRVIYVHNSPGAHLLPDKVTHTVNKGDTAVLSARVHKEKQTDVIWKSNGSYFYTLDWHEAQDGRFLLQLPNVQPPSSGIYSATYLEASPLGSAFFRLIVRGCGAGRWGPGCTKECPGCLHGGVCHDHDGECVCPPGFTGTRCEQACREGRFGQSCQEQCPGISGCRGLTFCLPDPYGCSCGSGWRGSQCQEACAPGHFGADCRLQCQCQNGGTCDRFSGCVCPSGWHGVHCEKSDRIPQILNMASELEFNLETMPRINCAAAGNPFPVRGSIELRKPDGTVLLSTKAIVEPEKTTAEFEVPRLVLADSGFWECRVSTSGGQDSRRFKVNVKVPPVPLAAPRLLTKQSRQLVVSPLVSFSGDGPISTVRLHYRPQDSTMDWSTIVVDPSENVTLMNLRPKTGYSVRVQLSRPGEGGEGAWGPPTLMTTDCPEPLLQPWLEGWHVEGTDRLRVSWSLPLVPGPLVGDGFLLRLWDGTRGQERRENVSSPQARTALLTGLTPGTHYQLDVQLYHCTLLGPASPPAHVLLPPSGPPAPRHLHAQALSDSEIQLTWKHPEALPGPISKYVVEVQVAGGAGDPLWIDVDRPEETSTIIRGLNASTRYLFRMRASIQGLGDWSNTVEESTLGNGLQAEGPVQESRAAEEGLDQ
Method: The IgG were directly coated onto a CM5 chip. […] All flow cells were subsequently deactivated with a 7 minute pulse of 1M ethanolamine hydrochloride pH 8.5. All analysis was performed in HBS buffer. Purified recombinant human Tie-1 Fc was diluted 1/28.7 in HBS to obtain a 400 nM stock solution. Serial dilutions were made to obtain 200 nM, 100 nM, 50 nM and 25 nM Tie-1 Fc stocks. For analysis of the association phase samples were injected at 30 μl/min for 8.3 minutes using kinject program. This was followed by a 40 minutes dissociation phase. Any antigen remaining associated to the surface was stripped from the IgG surface at a flow of 50μl/min with two injections of 10 mM glycine pH 1.5 for 30 secods. All samples were run and analyzed in duplicate
(§1) Sensorgrams were analyzed using the simultaneous ka/kd fitting program with 1:1 model in the BIAEVALUATION™ software 3.1.

[4] = target: T2, endogenous human Tie1 of primary human …; assay: cell-based or functional assay
[5] = target: T4, recombinant mouse Tie1-Fc (mouse, UniProt Q06806 23-755, limits assumed); assay: BIAcore, mouse Tie-1 Fc over IgG coupled to CM5 chip, 1:1 fit
T4 construct: also called Tie-1 Fc Mouse; not shown: Fc
T4 sequence (looked up): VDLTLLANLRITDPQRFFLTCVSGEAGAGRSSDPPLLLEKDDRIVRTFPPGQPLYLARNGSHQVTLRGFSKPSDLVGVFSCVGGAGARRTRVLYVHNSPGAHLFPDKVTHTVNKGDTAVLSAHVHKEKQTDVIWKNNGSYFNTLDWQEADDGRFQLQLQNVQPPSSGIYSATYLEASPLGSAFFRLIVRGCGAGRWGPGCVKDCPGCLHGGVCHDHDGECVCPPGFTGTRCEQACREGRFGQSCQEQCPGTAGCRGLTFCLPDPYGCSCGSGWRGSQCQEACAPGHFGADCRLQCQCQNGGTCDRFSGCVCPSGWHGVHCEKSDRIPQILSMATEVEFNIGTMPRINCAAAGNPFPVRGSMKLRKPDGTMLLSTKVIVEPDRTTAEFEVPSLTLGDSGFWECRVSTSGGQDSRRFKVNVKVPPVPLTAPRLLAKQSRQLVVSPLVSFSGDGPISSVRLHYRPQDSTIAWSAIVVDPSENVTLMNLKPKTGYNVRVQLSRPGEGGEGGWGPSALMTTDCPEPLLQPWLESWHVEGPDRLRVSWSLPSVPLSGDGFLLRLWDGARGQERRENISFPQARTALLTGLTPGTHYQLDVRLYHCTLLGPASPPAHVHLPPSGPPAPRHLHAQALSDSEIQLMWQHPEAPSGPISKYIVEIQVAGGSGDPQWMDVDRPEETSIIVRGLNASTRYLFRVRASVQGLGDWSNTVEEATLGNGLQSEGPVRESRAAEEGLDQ
Method: This was then used to transiently transfect HEK293T cells using established procedures. The IgG was purified from the culture supernatant using protein A column chromatography using established procedures and the subsequent IgG was then tested for binding activity using surface plasmon resonance (BIAcore). […] The IgG were directly coated via onto a CM5 chip. […] All flow cells were subsequently deactivated with a 7 minute pulse of 1M ethanolamine hydrochloride pH8.5. All analysis was performed in HBS buffer. Purified recombinant mouse Tie-1 Fc was diluted 1/6.5 in HBS to obtain a 400 nM stock solution. Serial dilutions were made to obtain 200 nM, 100 nM, 50 nM and 25 nM Tie-1 Fc stocks. For analysis of the association phase samples were injected at 30 μl/min for 8.3 minutes using kinject program. This was followed by a 40 minutes dissociation phase. Any antigen remaining associated to the surface was stripped from the IgG surface at a flow of 50μl/min with two injections of 10 mM glycine pH1.5 for 30 seconds. All samples were run and analyzed in duplicate
as §1

binding result [1]: binds
binding result [2]: binds
B1: P-B3 IgG (anti-Tie1 isolate p-B3, human IgG1) (antibody, V domains shown)
VH: EVQLLESGGGLVQPGGSLRLSCAASGFTFSRYGMHWVRQAPGKGLEWVSVISPSGGMTYYADSVKGRFTISRDNTKNTLYLQMNSLRAEDTAVYYCARVGATGPFDIWGQGTMVTVSS
VL: DIQMTQSPATLSLSPGERATLSCRASQSVSTYLAWYQQKPGQAPRLLIYDASNRATGIPGRFSGSGSGTDFTLTISSLEAEDFAVYYCQQRSSWPITFGQG
notes: the VL entry stops within FR4

Kd [3]: 5.83 nM
koff [3]: 3.61e-05 s⁻¹
kon [3]: 6190 M⁻¹ s⁻¹
IC50 of tube formation by HUVECs [4]: 10 ng/ml and 66 pM
Kd [5]: 14.9 nM
koff [5]: 9.2e-05 s⁻¹
kon [5]: 6170 M⁻¹ s⁻¹
B2: E3 IgG (parental anti-Tie1 antibody E3, human IgG1) (antibody, V domains shown)
VH: EVQLLESGGGLVQPGGSLRLSCAASGFTFSMYGMVWVRQAPGKGLEWVSVISPSGGNTGYADSVKGRFTISRDNSKNTLYLQVNSLRAEDTAVYYCARAPRGYSYGYYYWGQGTLVTVSS
VL: DIQMTQSPLSLSASVGDRVTITCRASQGIGHYLAWYQQKPGKVPKLLIYTASTLQSGVPSRFSGSGSGTDFTLTINSLQPEDVATYYCQQFNSYPHTFGQGTRLDIK
notes: also called E3 IgG1; parental E3

Kd [3]: 5.17 nM
koff [3]: 3.67e-05 s⁻¹
kon [3]: 7090 M⁻¹ s⁻¹
IC50 of tube formation by HUVECs [4]: 10 ng/ml and 66 pM
Kd [5]: 15 nM
koff [5]: 8.99e-05 s⁻¹
kon [5]: 6000 M⁻¹ s⁻¹
B3: germlined E3 IgG (light chain framework regions germlined to DPK4; heavy chain as parental) (antibody, V domains shown)
VH: B2 VH
VL: B2 VL with L9S, N76S, D105E
notes: also called germlined E3 IgG1; germlined anti Tie1 E3-IgG
